From the Immune Epitope Database (IEDB)
pKd: −log10 of the molar value.

How the values were obtained:
HLA-B*40:01 [1] = assay: IEDB peptide-MHC binding, purified MHC/competitive/radioactivity; filed as Kd, often an IC50 or EC50 that approximates it; ≥ and ≤ were set here for values at or beyond the usual limits of such assays
HLA-B*44:03 = assay: as above
HLA-B*40:02 = assay: as above
HLA-B*45:01 = assay: as above
HLA-B*44:02 [2] = assay: as above
HLA-B*18:01 = assay: as above
HLA-B*07:02 = assay: as above
HLA-B*51:01 = assay: IEDB peptide-MHC binding, purified MHC/competitive/fluorescence; filed as Kd, often an IC50 or EC50 that approximates it; ≥ and ≤ were set here for values at or beyond the usual limits of such assays; settings: source organism: Vibrio vulnificus YJ016
HLA-B*15:01 = assay: IEDB peptide-MHC binding, purified MHC/competitive/radioactivity; filed as Kd, often an IC50 or EC50 that approximates it; ≥ and ≤ were set here for values at or beyond the usual limits of such assays; settings: source organism: Vaccinia virus Copenhagen
HLA-A*32:01 = assay: as above
HLA-B*40:01 [3] = assay: IEDB peptide-MHC binding, purified MHC/direct/fluorescence; filed as Kd, often an IC50 or EC50 that approximates it; ≥ and ≤ were set here for values at or beyond the usual limits of such assays; settings: source organism: Amur virus
HLA-B*44:02 [4] = assay: as above; settings: source organism: Amur virus
HLA-A*68:02 = assay: IEDB peptide-MHC binding, purified MHC/competitive/radioactivity; filed as Kd, often an IC50 or EC50 that approximates it; ≥ and ≤ were set here for values at or beyond the usual limits of such assays; settings: source organism: Dengue virus 4 Philippines/H241/1956
HLA-B*35:01 = assay: as above; settings: source organism: Dengue virus 4 Philippines/H241/1956
HLA-A*01:01 = assay: as above; settings: source organism: Lymphocytic choriomeningitis virus (strain Armstrong)
HLA-A*26:01 = assay: as above; settings: source organism: Lymphocytic choriomeningitis virus (strain Armstrong)
HLA-A*30:01 = assay: as above; settings: source organism: Lymphocytic choriomeningitis virus (strain Armstrong)
HLA-A*29:02 = assay: as above; settings: source organism: Lymphocytic choriomeningitis virus (strain Armstrong)
HLA-A*30:02 = assay: as above; settings: source organism: Lymphocytic choriomeningitis virus (strain Armstrong)
[5] = source organism: Mammarenavirus brazilense
[6] = source organism: Vaccinia virus Copenhagen
[7] = source organism: SARS coronavirus Tor2
[8] = source organism: Mammarenavirus lassaense
[9] = source organism: Lymphocytic choriomeningitis virus (strain Traub)
[10] = source organism: Mammarenavirus guanaritoense

**Q.** QDPLLGTLS was tested. Which pKd (HLA-B*40:01 [1]; [5]) did it give?
**A.** ≤ 4.33

**Q.** What about the pKd (HLA-B*44:03; [5]) of the same sequence?
**A.** ≤ 4.52

**Q.** What about the pKd (HLA-B*40:02; [5]) of the same sequence?
**A.** 4.90

**Q.** What about the pKd (HLA-B*45:01; [5]) of the same sequence?
**A.** ≤ 4.13

**Q.** What about the pKd (HLA-B*44:02 [2]; [5]) of the same sequence?
**A.** ≤ 4.11

**Q.** What about the pKd (HLA-B*18:01; [5]) of the same sequence?
**A.** ≤ 4.11

**Q.** GPWHLGKLEM was tested. Which pKd (HLA-B*07:02; source organism: Dengue virus 2 Jamaica/1409/1983) did it give?
**A.** 7.23

**Q.** LPVLSLNWV was tested. Which pKd (HLA-B*51:01) did it give?
**A.** 6.56

**Q.** Which results are given for LLFFLALSI?
**A.** pKd (HLA-B*15:01): 6.87; pKd (HLA-A*32:01; [6]): 6.30

**Q.** SEGGIFNIT was tested. Which pKd (HLA-B*40:01 [3]) did it give?
**A.** 6.09

**Q.** And the pKd (HLA-B*44:02 [4])?
**A.** ≤ 4.70

**Q.** How did the pKd (HLA-B*40:01 [1]; [7]) turn out when RELHLSWEVG was run?
**A.** 6.08

**Q.** And the pKd (HLA-B*44:03; [7])?
**A.** 7.37

**Q.** What about the pKd (HLA-B*40:02; [7]) of the same sequence?
**A.** 6.70

**Q.** What about the pKd (HLA-B*45:01; [7]) of the same sequence?
**A.** 5.89

**Q.** What about the pKd (HLA-B*44:02 [2]; [7]) of the same sequence?
**A.** 8.08

**Q.** And the pKd (HLA-B*18:01; [7])?
**A.** 5.80

**Q.** MAWRTIMAV was tested. Which pKd (HLA-A*68:02) did it give?
**A.** 7.77

**Q.** What about the pKd (HLA-B*35:01) of the same sequence?
**A.** 6.12

**Q.** FEKHILPFMS was tested. Which pKd (HLA-B*40:01 [1]; [8]) did it give?
**A.** ≤ 4.47

**Q.** And the pKd (HLA-B*44:03; [8])?
**A.** ≤ 4.15

**Q.** And the pKd (HLA-B*40:02; [8])?
**A.** 6.17

**Q.** And the pKd (HLA-B*45:01; [8])?
**A.** ≤ 4.65

**Q.** And the pKd (HLA-B*44:02 [2]; [8])?
**A.** ≤ 4.15

**Q.** What about the pKd (HLA-B*18:01; [8]) of the same sequence?
**A.** ≤ 4.64

**Q.** With KEEILGTVSW as the sequence, how does the pKd (HLA-B*40:01 [1]; [7]) read?
**A.** 4.71

**Q.** And the pKd (HLA-B*44:03; [7])?
**A.** 7.32

**Q.** What about the pKd (HLA-B*40:02; [7]) of the same sequence?
**A.** 6.58

**Q.** What about the pKd (HLA-B*45:01; [7]) of the same sequence?
**A.** 5.55

**Q.** And the pKd (HLA-B*44:02 [2]; [7])?
**A.** 8.35

**Q.** What about the pKd (HLA-B*18:01; [7]) of the same sequence?
**A.** 6.33

**Q.** How did the pKd (HLA-A*01:01) turn out when ESFVRKQKY was run?
**A.** 4.97

**Q.** And the pKd (HLA-A*26:01)?
**A.** 5.40

**Q.** And the pKd (HLA-A*30:01)?
**A.** 4.91

**Q.** And the pKd (HLA-A*32:01; source organism: Lymphocytic choriomeningitis virus (strain Armstrong))?
**A.** ≤ 4.11

**Q.** What about the pKd (HLA-A*29:02) of the same sequence?
**A.** ≤ 4.19

**Q.** What about the pKd (HLA-A*30:02) of the same sequence?
**A.** 5.50

**Q.** SPARLASAIL was tested. Which pKd (HLA-B*07:02; source organism: Dengue virus 4 Philippines/H241/1956) did it give?
**A.** 8.24

**Q.** With KPIDDRFAT as the sequence, how does the pKd (HLA-B*07:02; source organism: Dengue virus 1 Brazil/97-11/1997) read?
**A.** 7.31

**Q.** RELHLSWEV was tested. Which pKd (HLA-B*40:01 [1]; [7]) did it give?
**A.** 8.51

**Q.** What about the pKd (HLA-B*44:03; [7]) of the same sequence?
**A.** 7.67

**Q.** And the pKd (HLA-B*40:02; [7])?
**A.** 8.30

**Q.** What about the pKd (HLA-B*45:01; [7]) of the same sequence?
**A.** 7.75

**Q.** And the pKd (HLA-B*44:02 [2]; [7])?
**A.** 7.06

**Q.** And the pKd (HLA-B*18:01; [7])?
**A.** 7.10

**Q.** With EEKGISGTS as the sequence, how does the pKd (HLA-B*40:01 [1]; [9]) read?
**A.** ≤ 4.27

**Q.** And the pKd (HLA-B*44:03; [9])?
**A.** ≤ 4.11

**Q.** What about the pKd (HLA-B*40:02; [9]) of the same sequence?
**A.** ≤ 4.34

**Q.** And the pKd (HLA-B*45:01; [9])?
**A.** 5.65

**Q.** What about the pKd (HLA-B*44:02 [2]; [9]) of the same sequence?
**A.** ≤ 4.47

**Q.** What about the pKd (HLA-B*18:01; [9]) of the same sequence?
**A.** ≤ 4.11

**Q.** Which results are given for FELLNAPAT?
**A.** pKd (HLA-B*40:01 [1]; [7]): 5.93; pKd (HLA-B*44:03; [7]): 5.21; pKd (HLA-B*40:02; [7]): 7.95; pKd (HLA-B*45:01; [7]): 6.41; pKd (HLA-B*44:02 [2]; [7]): 5.24; pKd (HLA-B*18:01; [7]): 6.52

**Q.** MIFFNPVSF was tested. Which pKd (HLA-B*15:01) did it give?
**A.** 8.03

**Q.** What about the pKd (HLA-A*32:01; [6]) of the same sequence?
**A.** 9.34

**Q.** With REEAIRHVRA as the sequence, how does the pKd (HLA-B*40:01 [1]; [7]) read?
**A.** 6.16

**Q.** What about the pKd (HLA-B*44:03; [7]) of the same sequence?
**A.** ≤ 4.34

**Q.** What about the pKd (HLA-B*40:02; [7]) of the same sequence?
**A.** 5.48

**Q.** And the pKd (HLA-B*45:01; [7])?
**A.** 7.24

**Q.** And the pKd (HLA-B*44:02 [2]; [7])?
**A.** 4.73

**Q.** And the pKd (HLA-B*18:01; [7])?
**A.** ≤ 4.15

**Q.** How did the pKd (HLA-B*40:01 [1]; [10]) turn out when PECSDSPLVL was run?
**A.** ≤ 4.48

**Q.** What about the pKd (HLA-B*44:03; [10]) of the same sequence?
**A.** ≤ 4.15

**Q.** What about the pKd (HLA-B*40:02; [10]) of the same sequence?
**A.** 5.50

**Q.** What about the pKd (HLA-B*45:01; [10]) of the same sequence?
**A.** ≤ 4.15

**Q.** And the pKd (HLA-B*44:02 [2]; [10])?
**A.** ≤ 4.15

**Q.** And the pKd (HLA-B*18:01; [10])?
**A.** 4.76

**Q.** ADMSKLISL was tested. Which pKd (HLA-B*40:01 [1]; [5]) did it give?
**A.** 4.76

**Q.** And the pKd (HLA-B*44:03; [5])?
**A.** ≤ 4.47

**Q.** And the pKd (HLA-B*40:02; [5])?
**A.** 6.54

**Q.** What about the pKd (HLA-B*45:01; [5]) of the same sequence?
**A.** ≤ 4.11

**Q.** What about the pKd (HLA-B*44:02 [2]; [5]) of the same sequence?
**A.** ≤ 4.43

**Q.** What about the pKd (HLA-B*18:01; [5]) of the same sequence?
**A.** ≤ 4.11

**Q.** How did the pKd (HLA-B*40:01 [1]; [7]) turn out when FDAWFSQRGG was run?
**A.** ≤ 4.16

**Q.** And the pKd (HLA-B*44:03; [7])?
**A.** ≤ 4.49

**Q.** And the pKd (HLA-B*40:02; [7])?
**A.** ≤ 4.15

**Q.** And the pKd (HLA-B*45:01; [7])?
**A.** 6.44

**Q.** And the pKd (HLA-B*44:02 [2]; [7])?
**A.** 5.01

**Q.** What about the pKd (HLA-B*18:01; [7]) of the same sequence?
**A.** ≤ 4.15
